For the experiment, the target named is Vip3Aa protoxin (proVip3Aa, without Flag tag) (Bacillus thuringiensis). As to the kind of experiment: MST; labeled proVip3Aa (333 nM) or labeled actVip3Aa (216 nM) kept constant, GST-PHB2 titrated from 0.2 nM to 7 μM; PBS pH 7.5; Monolith NT.115 Pico.

For “GST-PHB2 (prohibitin 2 of Spodoptera frugiperda fused to glutathione-S-transferase) (natural protein)”, the Kd (in general, the constant that tells how readily two partners part at equilibrium) came to 45.9 nM.

(Values after article PMC9037526.)
